The text below walks through data of publication PMC12150756 (Infection and Immunity, 2025).

In test [1] the target is T1, PfCSPFL, recombinant full-length P. falciparum NF54 circumsporozoite protein devoid of signal peptide and GPI … (P. falciparum NF54, UniProt P19597).
For test [2], the target named is T2, PfCSPC, C-terminal αTSR domain of P. falciparum NF54 circumsporozoite protein (E310-S384) (P. falciparum NF54, UniProt P19597).
Test [3] has as its target T2, PfCSPC, C-terminal αTSR domain of P. …. The test can be described thus: crystal structure; sdAb:PfCSPC complex prepared at 1.2:1, purified by SEC in 20 mM Tris-HCl, 150 mM NaCl, pH 7.5; sitting drop at 20°C; tags retained; data to ~2.1 Å. The following applies: both partners purified.
The target of test [4] is T3, full-length CSP from P. falciparum 3D7 on the surface of transgenic P. berghei ANKA sporozoites (PfCSP-PbSPZs) (P. falciparum 3D7, UniProt Q7K740).
T3 construct: Full-length circumsporozoite protein of P. falciparum 3D7, expressed on transgenic P. berghei ANKA sporozoites; The same protein on midgut (MG) and salivary gland (SG) sporozoites; the assays tell them apart; also called PfCSP on MG SPZs; PfCSP on SG SPZs; source: transgenic P. berghei ANKA sporozoites isolated from midguts or salivary glands of Anopheles stephensi
The test can be described thus: flow cytometry on cells; salivary gland PfCSP-PbSPZs (15- and 22-day-old), formaldehyde-fixed; sdAb incubated at ambient temperature; detected with anti-HA Alexa Fluor 647; MFI. The following applies: one partner purified.

The target of test [5] is T1, PfCSPFL, recombinant full-length P. …. The test can be described thus: ELISA; antigen coated at 1 µg/mL on Maxisorb plates, blocked with 5% milk in PBS; purified sdAb at 1 µg/mL, 1 h at room temperature, triplicates; detected with anti-HA mAb and anti-mouse-HRP. The following applies: both partners purified. (In general: ELISA stands for enzyme-linked immunosorbent assay.)

The target in test [6] is PbCSPFL, recombinant full-length P. berghei ANKA circumsporozoite protein devoid of signal peptide and GPI … (Plasmodium berghei ANKA, UniProt P23093). The test is described as above. The conditions noted are these: both partners purified.

Like-named read-outs stand apart in the source and are kept apart here.

T1 sequence (P19597 20-384): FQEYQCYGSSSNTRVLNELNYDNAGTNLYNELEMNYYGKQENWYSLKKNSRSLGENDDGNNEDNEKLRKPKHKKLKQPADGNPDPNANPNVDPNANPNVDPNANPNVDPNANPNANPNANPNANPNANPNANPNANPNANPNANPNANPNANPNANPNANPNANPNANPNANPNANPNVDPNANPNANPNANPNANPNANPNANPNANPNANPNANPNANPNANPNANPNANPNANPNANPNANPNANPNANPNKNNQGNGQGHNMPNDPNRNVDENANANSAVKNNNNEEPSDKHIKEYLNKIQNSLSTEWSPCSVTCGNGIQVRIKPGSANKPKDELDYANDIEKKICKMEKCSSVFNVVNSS
T2 sequence (P19597 310-384): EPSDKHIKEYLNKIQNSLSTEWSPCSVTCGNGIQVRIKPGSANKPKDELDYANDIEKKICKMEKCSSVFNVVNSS
T3 sequence (Q7K740 19-374): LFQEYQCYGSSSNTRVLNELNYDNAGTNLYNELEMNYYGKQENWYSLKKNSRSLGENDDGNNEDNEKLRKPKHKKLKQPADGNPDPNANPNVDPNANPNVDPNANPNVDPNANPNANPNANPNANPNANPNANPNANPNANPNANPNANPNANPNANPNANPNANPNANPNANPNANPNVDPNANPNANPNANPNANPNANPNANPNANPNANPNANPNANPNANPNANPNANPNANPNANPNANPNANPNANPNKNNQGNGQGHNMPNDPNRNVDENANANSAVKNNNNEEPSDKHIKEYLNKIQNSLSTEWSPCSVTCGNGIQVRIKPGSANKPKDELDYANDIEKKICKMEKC

B1: sdAb15 (VHH)
VHH: QVQLQESGGGLVQAGGSLRLSCVATGRPFDDYTVAWFRQAPGKERDFVAAISRSGVSTYYQDDVKGRFTISRDNARNTAYLSMNSLKPEDTAVYYCAARSTIRLLTDPSYDYWGQGTQVTVSS
For the molecule B1, the binding result in test [1] and in test [2] was “binds” throughout.

B2: sdAb9, anti-PfCSP camelid single-domain antibody (VHH)
VHH: QVQLQESGGGLVQAGGSLRLSCAASGRTFSSYSMGWFRQVPGKEREFVARITSSGGNTDYADSAKGRFTISRDNAKNTVYLQMSTLKPEDTAVYYCAADLWQYGRNSRAADYDYWGQGTQVTVSS
notes: from the library of the alpaca Attitude (immunized with PfCSPFL); Expressed from pMECS-GG; Same VHH family as sdAb1; source: E. coli WK6, periplasmic extract, purified (Ni-NTA, SEC); crude bacterial extract for the screening ELISA
On to B2, for which the binding result was “binds” in test [3], “binds” in test [4], “binds” in test [5] and “no binding (tested: 1 µg/mL sdAb)” in test [6].

B3: sdAb3 (VHH)
VHH: QVQLQESGGGLVQAGGSLRLSCAASGRTFTEYSMGWFRQAPGKEREFVARISWSGGSTYYADSVKGRFTISRDNAENTVYLQMTSLKPEDTAVYYCAADQLQFGRNSRAADYDDWGQGTQVTVSS
In the case of B3, the binding result in test [1] and in test [2] was “binds” in each case.

B4: sdAb6 (VHH)
VHH: QVQLQESGGGLVQAGGSLRVSCVGSGRAFSRYSMGWFRQFPGKEREFVACISSSGGAIDYADSVKGRFTISRDNAKNAVYLQMNSLKPDDTAVYYCAADQFRISTVPMGVIDYWGQGTQVTVSS
For B4, the binding result in test [1] and in test [2] was “binds” each time.

B5: sdAb18 (VHH)
VHH: QVQLQESGGGLVQPGGSLNLSCTAGVSLDYYAIGWFRQAPGKEREFVARISSSGGNTYYADSVRGRFTISRDNAKNTVYLQMNSLKPEDTAVYYCAADLLQFGRSSRAADYDYWGQGTQVTVSS
In the case of B5, the binding result in test [1] and in test [2] was “binds” in each case.

B6: sdAb2 (VHH)
VHH: QVQLQESGGGLVQFGGSLRLSCAASGFTFSSANMSWVRQAPGKGLEWVSTISPGGGTTSYAGSVKGRFTISRDNAKNTLYLQMNALKPEDTAVYYCATGGPSSQESVYRGQGTQVTVSS
In the case of B6, the binding result in test [1] and in test [2] was “binds” throughout.

B7: sdAb10 (VHH)
VHH: QVQLQESGGGLVQPGGSLRLSCAASGRTFSSYTMGWFRQAPGKERELVAAISRSGLNTDYADSVKGRFTISRDNAKNTVYLQMNTLKPEDTAVYYCAARSTIRLLTDPSYDYWGQGTQVTVSS
As for B7, the binding result in test [1] and in test [2] was “binds” in each case.

B8: sdAb5 (VHH)
VHH: QVQLQESGGGLVQAGGSLRLSCAASGRTFGSYVMGWFRQAPGKEREFVAAISRSGGTTYYADSVKGRFAISRDNAKNTVFLQMNSLKPEDTAVYYCAATTTISMLVVLTTTPKYDYWGQGTQVTVSS
In the case of B8, the binding result in test [1] and in test [2] was “binds” in each case.

B9: sdAb4 (VHH)
VHH: QVQLQESGGGLVQVGGSLRLSCAASGRTFSSYTMAWFRQAPGKEREFVAAISRSGSNTYYADSVKGRFTISRDNAKNTVYLQMSSLYPEDTAVYTCAARDAILLLTTTHYDYWGQGTQVTVSS
For the molecule B9, the binding result in test [1] and in test [2] was “binds” throughout.

B10: sdAb7 (VHH)
VHH: QVQLQESGGGVVQTGGSLRLSCAASVRTFSNYALGWFRQAPGKEREFVARISSSGGNTYYADSVRGRFTISRDNAKNTVYLQMNSLKPEDTAVYYCAADLLQFGRSSRAADYDYWGQGTQVTVSS
As to B10, the binding result in test [1] and in test [2] was “binds” in each case.

B11: sdAb1, anti-PfCSP camelid single-domain antibody (VHH)
VHH: QVQLQESGGGLVQAGGSLRLSCAASGRTFSSYSMGWFRLVPGKEREFVARISSSGGNTYYADSVRGRFTISRDNAKNTVYLQMNSLKPEDTAVYYCAADLLQFGRSSRAADYDYWGQGTQVTVSS
notes: from the library of the alpaca Attitude (immunized with PfCSPFL); Expressed from pMECS-GG; Same VHH family as sdAb9; source: E. coli WK6, periplasmic extract, purified (Ni-NTA, SEC); crude bacterial extract for the screening ELISA
As for B11, the binding result was “binds” in test [3], “binds” in test [4], “binds” in test [5] and “no binding (tested: 1 µg/mL sdAb)” in test [6].

B12: sdAb8 (VHH)
VHH: QVQLQESGGGLVQAGGSLRLSCAASGRTVSSYTMGWFRQAPGKERSFVAASLRSGGSTYYSDSVKGRFTISRDNAKNTVYLQMNSLRPEDTAVYYCAADEQLAYNINYNYRNYDYWGQGTQVTVSS
Take B12: the binding result in test [1] and in test [2] was “binds” in each case.
